Reference: article PMC8448962 (Neuron, 2021)

Target: the molecule itself
Assay: crystal structure

B1: Human TRAAK A198E, crystallisation construct (C-terminally truncated, N104Q/N108Q) (domain or fragment)
chain: MTTAPQEPPARPLQAGSGAGPAPGRAMRSTTLLALLALVLLYLVSGALVFRALEQPHEQQAQRELGEVREKFLRAHPCVSDQELGLLIKEVADALGGGADPETQSTSQSSHSAWDLGSAFFFSGTIITTIGYGNVALRTDAGRLFCIFYALVGIPLFGILLAGVGDRLGSSLRHGIGHIEAIFLKWHVPPELVRVLSEMLFLLIGCLLFVLTPTFVFCYMEDWSKLEAIYFVIVTLTTVGFGDYVAGADPRQDSPAYQPLVWFWILLGLAYFASVLTTIGNWLRVVSRRTRAEMGGLTAQSNSLEVLFQ
  stoichiometry N: 2
